Measurements as given in PMC5655542 (2017).

Target: T1, H. polygyrus Alarmin Release Inhibitor (HpARI), recombinant mature 6-His and Myc-tagged protein (Heligmosomoides polygyrus)
T1 chain: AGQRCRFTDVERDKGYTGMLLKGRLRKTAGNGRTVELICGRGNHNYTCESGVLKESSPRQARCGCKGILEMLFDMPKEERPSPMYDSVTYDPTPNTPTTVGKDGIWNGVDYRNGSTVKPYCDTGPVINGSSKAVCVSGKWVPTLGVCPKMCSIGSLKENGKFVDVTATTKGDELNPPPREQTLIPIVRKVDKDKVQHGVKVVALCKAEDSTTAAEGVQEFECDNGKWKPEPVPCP
Test: SPR; 25°C

B1: recombinant human IL-33, untreated (reduced, active form) (ligand)
chain: MKPKMKYSTNKISTAKWKNTASKALCFKLGKSQQKAKEVCPMYFMKLRSGLMIKKEACYFRRETTKRPSLKTGRKHKRHLVLAACQQQSTVECFAFGISGVQKYTRALHDSSITGISPITEYLASLSTYNDQSITFALEDESYEIYVEDLKKDEKKDKVLLSYYESQHPSNESGDGVDGKMLMVTLSPTKDFWLHANNKEHSVELHKCEKPLPDQAFFVLHNMHSNCVSFECKTDPGVFIGVKDNHLALIKVDSSENLCTENILFKLSET
In the case of B1, the koff is reported as 0.004 s⁻¹.

B2: recombinant murine IL-33, untreated (reduced, active form) (ligand)
chain: SIQGTSLLTQSPASLSTYNDQSVSFVLENGCYVINVDDSGKDQEQDQVLLRYYESPCPASQSGDGVDGKKLMVNMSPIKDTDIWLHANDKDYSVELQRGDVSPPEQAFFVLHKKSSDFVSFECKNLPGTYIGVKDNQLALVEEKDESCNNIMFKLSKI
modifications: reduced (free cysteines, no disulfides), active form; limits not given, taken as the usual commercial mature mouse IL-33 (Ser109-Ile266, UniProt chain 109-266)
B2 showed a koff of 0.00014 s⁻¹.
